Reference: patent publication US20190336589A1, “IMMUNIZING PEPTIDE, METHOD FOR PRODUCING IMMUNIZING PEPTIDE, PHARMACEUTICAL COMPOSITION FOR IMMUNE DISEASE CONTAINING SAME, AND METHOD FOR TREATING IMMUNE DISEASE” (OSAKA UNIVERSITY, priority 2015, published 2019)

Key:
[1] = target: T1, 3A9 TCR / complex of HEL antigen and I-A^k on LK35.2 cells (Mus musculus, UniProt P01910+P06343); test: Inhibition of TCR recognition by antibody: binding of soluble single-chain 3A9 TCR to antigen-pulsed LK35.2 cells after reaction with serum; details: cells reacted with serums of HEL-immunized mice, diluted 10-fold
T1 construct: LK35.2 cells expressing I-A^k (the MHC class II molecule); endogenous in cells; host or cells: LK35.2 cells (I-A^k); the 3A9 scTCR-Fc is culture supernatant of transfected 293T cells
From the text: From 3A9 T cell hybridomas (obtained from Laboratory of Vaccine Materials, National Institutes of Biomedical Innovation) expressing a TCR that recognizes a complex of a peptide consisting of the amino acid sequence of SEQ ID NO: 1 (the T-cell epitope) and I-A^k (the MHC class II molecule), the TCR was cloned. Specifically, from cDNA derived from the 3A9 T cell hybridomas, a polynucleotide encoding the following α-chain and β-chain of 3A9 TCR linked by a GGGGS linker was cloned into a pME18S vector. Thus, a 3A9 TCR expression vector was produced. The vector was designed so that the Fc domain of human IgG is added to the C terminus of an expressed protein. Thus, by introducing the expression vector to a host, a soluble single-chain TCR composed of 3A9 TCR and Fc bound thereto is expressed (3A9 scTCR-Fc).
Next, the 293 T cells were cultured for 96 hours under the same 30 culture conditions as in the item (1) in Example 1A, except that the 3A9 TCR expression vector was introduced instead of the I-A^k c expression vector and the I-A^k f expression vector. After the culture, the supernatant was collected, and the collected supernatant was used as the soluble single-chain TCR.
LK35.2 cells expressing I-A^k (the MHC class II molecule) were seeded in a 24-well plate at a density of 1×10^5 cells/1 ml/well. Next, the HEL protein was added to the wells at a concentration of 200 μg/ml, or the HEL peptide 41-70 or the HEL peptide 48-61 was added to the wells at a concentration of 20 μmol/l. The LK35.2 cells were pulsed with the HEL protein or the HEL peptide by culturing the HEL protein-added group for another 48 hours and the HEL peptide added groups for another 24 hours under the above-described culture conditions. The cultured LK35.2 cells were collected from the wells. Thereafter, the collected LK35.2 cells were used in inhibition of TCR recognition by an antibody to be described below.
Serum collected from each of the HEL protein-immunized mice was diluted 10-fold with HBSS to obtain a diluted serum. Next, 10 μl of the diluted serum was added to the LK35.2 cells obtained in the above item (2) to cause a reaction. Further, a dimer of 20 μl of the supernatant obtained in the above item (1) and 10 μl of an APC-labeled anti-human IgG Fc antibody (code number: 109-136-098, Jackson ImmunoResearch) diluted 100-fold was formed beforehand, and the LK35.2 cells after the reaction were reacted with the dimer. Then, the LK35.2 cells were analyzed by flow cytometry. As Control 1, the flow cytometry analysis was performed in the same manner, except that serums collected from non-immunized mice were used instead of the serums of the HEL protein-immunized mice. […]

[2] = target: T2, complex of HEL peptide and MHC class II molecule (I-A^k) on LK35.2 cells (Mus musculus, UniProt P01910+P06343); test: Immunization of mice with HEL peptides; serum IgG1 binding to HEL peptide-pulsed LK35.2 cells (flow cytometry); type: in vivo, mice (B10.A strain); details: 30 nmol peptide with CFA subcutaneously; serum two weeks after administration
T2 construct: LK35.2 cells expressing I-A^k (the MHC class II molecule); endogenous in cells; host or cells: LK35.2 cells
Procedure: 30 nmol of the HEL peptide 41-70 or the HEL peptide 48-61 was mixed with a complete Freund's adjuvant. Each of the thus-obtained mixture was administered subcutaneously to mice (B10.A strain). Two weeks after the administration, whole blood was collected from each mouse, and serum was collected from the whole blood.
LK35.2 cells were pulsed with the HEL peptide in the same manner as in the item (2) in Example 1B, except that the HEL peptide 41-70 or the HEL peptide 48-61 was added instead of the HEL protein, the HEL peptide 41-70, and the HEL peptide 48-61. The cultured LK35.2 cells were collected from the wells. Thereafter, the collected LK35.2 cells were used in antibody detection to be described below.
Flow cytometry analysis was performed in the same manner as in the item (3) in Example 1A, except that the LK35.2 cells in the item (2) in Example 2A were used instead of the 293 T cells and that an Alexa®647-labeled anti-mouse IgG1 antibody (catalog number: A21240, Invitrogen) was used instead of the APC-labeled anti-mouse IgG (H+L) antibody (peptide added groups). As Control 1, the flow cytometry analysis was performed in the same manner, except that serums collected from non-immunized mice were used instead of the serums of the HEL peptide-immunized mice. As Control 2, the flow cytometry analysis was performed in the same manner, except that the HEL peptide was not added (peptide non-added groups).

T2 sequence (P01910 24-256): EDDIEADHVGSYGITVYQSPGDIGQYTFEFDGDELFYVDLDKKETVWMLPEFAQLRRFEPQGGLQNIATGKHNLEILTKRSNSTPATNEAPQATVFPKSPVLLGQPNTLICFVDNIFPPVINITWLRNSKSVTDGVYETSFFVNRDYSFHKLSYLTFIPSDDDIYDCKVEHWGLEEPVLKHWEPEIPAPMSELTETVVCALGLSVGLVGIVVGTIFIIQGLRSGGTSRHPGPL
T2 sequence (P06343 28-263): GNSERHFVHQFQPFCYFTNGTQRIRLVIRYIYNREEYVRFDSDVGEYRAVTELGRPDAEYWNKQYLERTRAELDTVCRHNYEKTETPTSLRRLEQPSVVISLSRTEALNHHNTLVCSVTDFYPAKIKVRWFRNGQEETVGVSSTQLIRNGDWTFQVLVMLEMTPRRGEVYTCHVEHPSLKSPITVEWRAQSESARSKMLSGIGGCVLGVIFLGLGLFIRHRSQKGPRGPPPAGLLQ
T1 sequence (P01910 24-256): as the sequence (P01910 24-256) above
T1 sequence (P06343 28-263): as the sequence (P06343 28-263) above

Row | Sequence | binding of soluble single-chain TCR to LK35.2 cells pulsed with the antigen [1] | IgG1 binding of serum of peptide-immunized mice to LK35.2 cells pulsed with HEL peptide 41-70 [2] | IgG1 binding of serum of peptide-immunized mice to LK35.2 cells pulsed with HEL peptide 48-61 [2]
1 | DGSTDYGILQINSR (Gallus gallus domesticus) [HEL peptide 48-61, reference compound] | observed | not observed | not observed
2 | QATNRNTDGSTDYGILQINSRWWCNDGRTP (Gallus gallus domesticus) [HEL peptide 41-70] | not observed | observed | not observed
